Laboratory results reported in patent US20150344583A1 (Amgen, published 2015).

Experiments:
[1] = molecular target: T1, clipped form of Sumo-huBCMA, SEQ ID NO:357 (human); assay: SEC and LC/MS
T1 chain: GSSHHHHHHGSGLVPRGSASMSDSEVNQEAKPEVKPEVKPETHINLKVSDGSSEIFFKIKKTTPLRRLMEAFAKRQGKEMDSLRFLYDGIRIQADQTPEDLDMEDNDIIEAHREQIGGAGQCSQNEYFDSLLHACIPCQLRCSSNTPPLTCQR

[2] = molecular target: T2, cynomolgus (Macaca fascicularis) BCMA on cells (cynomolgus (Macaca fascicularis), UniProt Q02223 1-184 (human entry)); assay: summary sentence of Example 16; assay for cynomolgus BCMA not given there
T2 construct: also called cyno BCMA; cynomolgus BCMA
T2 sequence (Q02223 other isoform, or with tags, fused parts or gaps): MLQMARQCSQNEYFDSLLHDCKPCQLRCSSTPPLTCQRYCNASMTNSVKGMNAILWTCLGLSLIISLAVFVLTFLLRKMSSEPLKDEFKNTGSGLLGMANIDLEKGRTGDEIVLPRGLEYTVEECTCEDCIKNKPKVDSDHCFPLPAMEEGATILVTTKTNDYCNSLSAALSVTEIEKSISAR

[3] = molecular target: T3, clipped form of Sumo-huBCMA, SEQ ID NO:354 (human); assay: SEC of antibody and Sumo-BCMA mixtures
T3 construct: also called peak A
T3 chain: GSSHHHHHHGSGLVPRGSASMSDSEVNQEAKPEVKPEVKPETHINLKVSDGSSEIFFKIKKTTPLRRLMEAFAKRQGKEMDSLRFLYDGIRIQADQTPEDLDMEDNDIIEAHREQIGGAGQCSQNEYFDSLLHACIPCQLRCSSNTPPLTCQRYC

[4] = molecular target: T4, clipped form of Sumo-huBCMA, SEQ ID NO:356 (human); assay: SEC of antibody and Sumo-BCMA mixtures
T4 construct: the species in the SEC peak came from the Sumo fusion, so it may carry the tag
T4 chain: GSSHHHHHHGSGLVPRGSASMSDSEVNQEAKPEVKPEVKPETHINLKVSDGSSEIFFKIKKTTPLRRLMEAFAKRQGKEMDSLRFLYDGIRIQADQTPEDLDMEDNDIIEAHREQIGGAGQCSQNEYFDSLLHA

[5] = molecular target: T5, clipped form of Sumo-huBCMA, SEQ ID NO:355 (human); assay: SEC of antibody and Sumo-BCMA mixtures
T5 chain: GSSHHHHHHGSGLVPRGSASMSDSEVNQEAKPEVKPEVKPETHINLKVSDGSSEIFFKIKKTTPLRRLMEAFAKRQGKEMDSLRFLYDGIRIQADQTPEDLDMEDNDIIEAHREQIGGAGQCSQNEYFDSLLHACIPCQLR

Measured: binding result

B1: Ab-1 (2A1CV5) (antibody, human IgG1, lambda, V domains shown)
VH: EVQLVESGGGLVKPGGSLRLSCAASGFTFGDYALSWFRQAPGKGLEWVGVSRSKAYGGTTDYAASVKGRFTISRDDSKSTAYLQMNSLKTEDTAVYYCASSGYSSGWTPFDYWGQGTLVTVSS
VL: not shown
binds: all assays above
